# Experimental data taken from IntAct's records for PubMed 17030804.
# B1: Rab11 family-interacting protein 3 (Homo sapiens), O75154-1 (parent)
# chain: MASAPPASPPGSEPPGPDPEPGGPDGPGAAQLAPGPAELRLGAPVGGPDPQSPGLDEPAPGAAADGGARWSAGPAPGLEGGPRDPGPSAPPPRSGPRGQLASPDAPGPGPRSEAPLPELDPLFSWTEEPEECGPASCPESAPFRLQGSSSSHRARGEVDVFSPFPAPTAGELALEQGPGSPPQPSDLSQTHPLPSEPVGSQEDGPRLRAVFDALDGDGDGFVRIEDFIQFATVYGAEQVKDLTKYLDPSGLGVISFEDFYQGITAIRNGDPDGQCYGGVASAQDEEPLACPDEFDDFVTYEANEVTDSAYMGSESTYSECETFTDEDTSTLVHPELQPEGDADSAGGSAVPSECLDAMEEPDHGALLLLPGRPHPHGQSVITVIGGEEHFEDYGEGSEAELSPETLCNGQLGCSDPAFLTPSPTKRLSSKKVARYLHQSGALTMEALEDPSPELMEGPEEDIADKVVFLERRVLELEKDTAATGEQHSRLRQENLQLVHRANALEEQLKEQELRACEMVLEETRRQKELLCKMEREKSIEIENLQTRLQQLDEENSELRSCTPCLKANIERLEEEKQKLLDEIESLTLRLSEEQENKRRMGDRLSHERHQFQRDKEATQELIEDLRKQLEHLQLLKLEAEQRRGRSSSMGLQEYHSRARESELEQEVRRLKQDNRNLKEQNEELNGQIITLSIQGAKSLFSTAFSESLAAEISSVSRDELMEAIQKQEEINFRLQDYIDRIIVAIMETNPSILEVK
# Variants of: B1
# Details: with rb11a_human RAB11A
row,Variant,effect of a mutation on the interaction
1,D739A,disrupting interaction strength
2,E747A,decreasing interaction strength
3,Y737S,disrupting interaction strength
4,M746S,disrupting interaction strength
